The target of experiment [1] is SARS-CoV2 S蛋白, 奥密克戎 (Omicron:BA.1), on pseudovirus (SARS-CoV2). The experiment is described as follows: cell-based or functional assay.
Experiment [2] concerns the target SARS-CoV2 S蛋白, 拉姆达 (Lambda:C.37), on pseudovirus (SARS-CoV2). The experiment is described as follows: cell-based or functional assay.

We go through 1 molecule from patent CN114656556A.

B1: 全人源单克隆抗体YK-CoV2-03 (fully human anti-SARS-CoV2 monoclonal antibody, whole IgG) (antibody, V domains shown)
VH: EVQLQESGGGLVQPGGSLRLSCAASGLTVSRNYMTWVRQAPGKGLEWVSLIYAGGSTYYADSVKGRFTISRDNSKNTLYLQMNSLGAEDTAVYYCARDLVYYGMDVWGQGTTVTVAS
VL: DIQMTQSPFSLSASVGDRVTITCRASQGISSYLAWYQQKPGKAPKLLIYAASTLQSGVPSRFSGSGSGTDFTLTISSLQPEDFATYYCQHLNSDRYTFGQGTKLEI
As to B1, the pseudovirus neutralisation IC50 (luciferase RLU, 293T-hACE2 cells) in experiment [1] is 0.32 µg/mL; in experiment [2], 0.0209 µg/mL.
